These are literature values, as cited in article PMC6728138.

pKd: −log10 of the molar value.

The target in series [1] is PVIVIT peptide (synthetic construct).
In series [2] the target is AKAP79 (Homo sapiens) (UniProt P24588).
Sequence of AKAP79 (Homo sapiens) (P24588 whole entry): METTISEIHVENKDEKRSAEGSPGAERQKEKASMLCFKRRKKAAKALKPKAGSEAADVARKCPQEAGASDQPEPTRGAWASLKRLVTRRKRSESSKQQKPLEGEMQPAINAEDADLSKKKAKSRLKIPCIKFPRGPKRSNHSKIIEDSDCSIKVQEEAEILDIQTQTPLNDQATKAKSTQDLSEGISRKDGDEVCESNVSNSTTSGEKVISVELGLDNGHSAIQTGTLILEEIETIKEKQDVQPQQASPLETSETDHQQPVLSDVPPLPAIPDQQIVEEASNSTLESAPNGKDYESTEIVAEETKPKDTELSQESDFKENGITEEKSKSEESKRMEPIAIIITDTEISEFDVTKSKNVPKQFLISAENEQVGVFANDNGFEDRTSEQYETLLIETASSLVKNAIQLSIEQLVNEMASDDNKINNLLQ

On to Calcineurin (from UniProt Q08209), for which the pKd in series [1] and in series [2] was 6.30 in each case.
